Consider 1 substance from patent US20110251375A1.

Like-named read-outs stand apart in the source and are kept apart here.

The target of experiment [1] is hen egg lysozyme (hen) (UniProt P00698). The experiment in a line: ELISA, no periplasmic extract; anti-His4 and anti-mouse HRP on HEL coated at 25 µg/ml. On the technique in general: An ELISA detects its analyte on a solid surface through an enzyme-linked reagent.
For experiment [2] the target is unchanged. The experiment in a line: ELISA, no periplasmic extract; anti-His4 and anti-mouse HRP on HEL coated at 50 µg/ml.
Experiment [3] has the same target. The experiment in a line: ELISA, no periplasmic extract; anti-His4 and anti-mouse HRP on HEL coated at 100 µg/ml.
For experiment [4] the target is unchanged. The experiment in a line: ELISA, no periplasmic extract; anti-His4 and anti-mouse HRP on HEL coated at 200 µg/ml.
Experiment [5] shares this target. The experiment in a line: ELISA, no periplasmic extract; anti-His4 and anti-mouse HRP on HEL coated at 0.39 µg/ml.
The target is the same in experiment [6]. The experiment is described as follows: ELISA, no periplasmic extract; anti-His4 and anti-mouse HRP on HEL coated at 1.55 µg/ml.
Experiment [7] shares this target. The experiment in a line: ELISA, no periplasmic extract; anti-His4 and anti-mouse HRP on HEL coated at 12.5 µg/ml.
The target is the same in experiment [8]. The experiment is described as follows: ELISA, no periplasmic extract; anti-His4 and anti-mouse HRP on HEL coated at 6.25 µg/ml.
For experiment [9] the target is unchanged. The experiment in a line: ELISA, no periplasmic extract; anti-His4 and anti-mouse HRP on HEL coated at 3.125 µg/ml.
The target is the same in experiment [10]. The experiment in a line: ELISA, no periplasmic extract; anti-His4 and anti-mouse HRP on coated HEL (100 µg/ml), 12 parallel readings.
The target is the same in experiment [11]. The experiment is described as above. The source holds these as a separate data set.
For experiment [12], the target named is recombinant human Erythropoietin (rhEPO) (human) (UniProt P01588). The experiment in a line: ELISA, no periplasmic extract; anti-His-(4) and goat anti-mouse IgG-AP alone on coated rhEPO; negative control, no-antigen well 0.090.
The target in experiment [13] is hen egg lysozyme (hen) (UniProt P00698). The experiment in a line: ELISA, no periplasmic extract; anti-His-(4) and goat anti-mouse IgG-HRP alone on coated HEL (20 µg/ml); negative control, no-antigen well 0.018.

Chain of UniProt P00698 (P00698 19-147 limits assumed): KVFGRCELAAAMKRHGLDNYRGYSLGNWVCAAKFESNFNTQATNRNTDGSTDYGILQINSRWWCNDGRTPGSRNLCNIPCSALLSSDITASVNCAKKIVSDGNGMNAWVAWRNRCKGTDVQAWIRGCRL
Chain of UniProt P01588 (P01588 28-192 limits assumed): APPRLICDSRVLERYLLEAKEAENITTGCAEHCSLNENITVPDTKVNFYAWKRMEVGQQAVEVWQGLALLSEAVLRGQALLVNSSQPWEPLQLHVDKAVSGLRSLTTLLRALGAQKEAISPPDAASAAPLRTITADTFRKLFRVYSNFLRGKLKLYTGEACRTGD

Turning to anti-His4 antibody (Qiagen), the ELISA absorbance (no periplasmic extract) with hen egg lysozyme (hen) [1] was found to be 0.072 A 492/620; with hen egg lysozyme (hen) [2] it was 0.165 A 492/620; with hen egg lysozyme (hen) [3], 0.36 A 492/620; with hen egg lysozyme (hen) [4], 0.449 A 492/620; with hen egg lysozyme (hen) [5], 0.007 A 492/620; with hen egg lysozyme (hen) [6], 0.013 A 492/620. Besides, the ELISA absorbance (no periplasmic extract) is 0.038 A 492/620 with hen egg lysozyme (hen) [7], 0.023 A 492/620 with hen egg lysozyme (hen) [8] and 0.017 A 492/620 with hen egg lysozyme (hen) [9]. The values for the A 492/620 background (antigen alone) with hen egg lysozyme (hen) [10] and with hen egg lysozyme (hen) [11] were 0.176 A 492/620 and 0.133 A 492/620, respectively. Moreover, the absorbance, no periplasmic extract (control) in [12] worked out at 0.095 A 405/620 nm; with hen egg lysozyme (hen) [13], 0.11 A 492/620 nm.
